Measured values as given in patent publication US20130252987A1, “METHOD OF REGULATING PLASMA LIPOPROTEINS” (MCMASTER UNIVERSITY, priority 2010, published 2013).

Experiments:
[1] = system: primary mouse hepatocytes from wildtype littermates; test: LDL receptor and PCSK9 protein in wild-type mouse hepatocytes; format: cell-based; settings: wild-type mice hepatocytes, 50 ng/mL, 24 hours
Protocol: Animal ethics approval was received for the mouse protocols to follow. Primary mouse hepatocytes from PCSK9 knockout mice (C57Bl/6 background) or their wildtype littermates were isolated by perfusing the liver via the hepatic portal vein with a 5 mM EGTA in Leffert's Buffer (10 mM Hepes; 3 mM KCl, 0.13 M NaCl, 1 mM NaH2PO4, 10 mM D-glucose) followed by a 0.3 mg/ml collagenase in 0.0279% CaCl2. Cells were then filtered through a 70 uM nylon strainer and centrifuged at 760 rpm for 5 min. The cells were then passed through a CHRM gradient (Invitrogen, NC). Viability of cells ranged from 80 to 95%. […] Mouse LDL receptor and PCSK9 protein in cell lysates were measured via immunoblotting, as described above, using the following primary antibodies: mouse LDL receptor (abcam, MA), mouse PCSK9 (abcam, MA) and mouse GAPDH (Cell Signaling, MA). […]
To then more directly quantify the role of PCSK9 in the resistin mediated reduction in hepatocyte LDL receptor levels, hepatocytes isolated and cultured from wild-type mice were treated with resistin, and compared to resistin-treated hepatocytes from PCSK9 knockout mice.

human PCSK9 = test: PCSK9 siRNA studies in HepG2 cells; format: cell-based
Protocol: Four siRNAs targeting human PCSK9 synthesized by Qiagen (Qiagen, MD) were purchased and tested. The siRNAs were transfected into HepG2 cells at a final concentration of 10 nM, using HiPerFect transfection reagent (Qiagen, MD) at 0.5% final volume. The siRNA that produced the maximum decrease in PCSK9 mRNA and protein expression in HepG2 cells (70% knockdown by Western blot 24 hours post-transfection) was chosen for further experiments. As a negative control, HepG2 cells were transfected with a scrambled siRNA control vector in HiPerFect (both Qiagen, MD). As a positive control, HepG2 cells were transfected with siRNA targeting the constitutively expressed GAPDH gene, using HiPerFect (Qiagen, MD). Western blots against PCSK9 (Caymen Chemicals, MI), LDL receptor (Fitzgerald International, CA) and GAPDH (Sigma, Mo.) were done in control untreated HepG2 cells, cells transfected with the optimal PCSK9 siRNA (Qiagen, MD) and cells treated with human resistin (50 ng/mL) plus PCSK9 siRNA 24 hours post-transfection.
The extent of the role of PCSK9 in the resistin mediated reduction in hepatocyte LDL receptor levels was examined. […] PCSK9 protein levels in hepatocytes were next assessed in response to PCSK9 siRNA administration, with and without resistin. […]

HepG2 cells = test: insulin signaling pathway protein expression, Western blot; format: cell-based, human; settings: 50 ng/mL, 24 hours
From the text: Horseradish peroxidase-conjugated antibodies (BioRad, Hercules, Calif.) were used as secondary antibodies.
Another important regulator of hepatocyte apoB/VLDL assembly and stability is the intracellular insulin signaling pathway.

rat primary hepatocytes = test: cellular apoB100 protein expression in primary rat hepatocytes; format: cell-based; settings: 50 ng/mL, 24 hours
Protocol: Primary Cells: Fresh wild-type rat and mouse primary heptaocytes were supplied by CellzDirect (Invitrogen, NC) in a 6-well collagen coated plate. Upon arrival, the storage media was removed and incubation media (Williams E Medium, phenol red free, with incubation supplement pack, Gibco, NC) was added according to manufactures' instructions. The cells were incubated at 37° C. with 5% CO2 for 16 hours prior to human resistin (50 ng/mL) treatment for 24 hours. Cryopreserved plateable human hepatocytes, metabolism qualified from multiple normal human donors, were supplied by CellzDirect (Invitrogen, NC). Upon arrival, the cells (4-8 million in 1 mL), according to the manufacturer's instruction, were added to 48 mL warmed thawing medium (CHRM® Medium, Invitrogen, NC) and centrifuged at 100×g for 10 min at room temperature. The pellet was re-suspended in 4 mL plating medium (Williams E Medium, phenol red free, with maintenance supplement pack and 10% FBS, Gibco, NC). The cells were stained by Trypan Blue (Sigma, Canada) and counted by a haemocytometer, followed by seeding 1×10^6 cells/well in a 6-well collagen coated plate (CellzDirect, Invitrogen, NC). The cells were incubated at 37° C. with 5% CO2 for 4 hours to allow the cells to adhere. The plating media was replaced and cell incubated for 16 hours prior to human resistin treatment for 24 hours. […]

B1: human resistin: recombinant lyophilized purified human resistin (Calbiochem); cysteine-rich cytokine, single 12 kDa band (protein)
chain: KTLCSMEEAINERIQEVAGSLIFRAISSIGLECQSVTSRGDLATCPRGFAVTGCTCGSACGSWDVRAETTCHCQCAGMDWTGARCCRVQP
B1 was tested, and the PCSK9 levels [1] was “increased PCSK9 levels significantly”, the “decrease in LDL receptor protein levels compared with untreated hepatocytes” value [1] was 40% and the “effect on LDL receptor elevation induced with PCSK9 siRNA” value (human PCSK9; resistin 50 ng/mL plus PCSK9 siRNA) was “reversed”. For the same molecule, the “cellular PCSK9 levels compared with siRNA treatment alone” value (human PCSK9; resistin plus PCSK9 siRNA) was “enhanced”, the “decrease in expression of IRS-2, ERK, phosphorylated ERK, Akt and serine and threonine phosphorylated Akt” value (HepG2 cells) was 20-30% and the “increase in cellular apoB protein expression versus untreated control cells” value (rat primary hepatocytes) was 40-50%.
